The values that follow come from patent US20210088514A1 (ACADEMIA SINICA, published 2021).

This experiment concerns the target T1, epithelial cell adhesion molecule (EpCAM) (UniProt P16422 24-314, limits assumed).
T1 construct: whole, on cells; also called EpCAM membrane protein
T1 sequence (looked up): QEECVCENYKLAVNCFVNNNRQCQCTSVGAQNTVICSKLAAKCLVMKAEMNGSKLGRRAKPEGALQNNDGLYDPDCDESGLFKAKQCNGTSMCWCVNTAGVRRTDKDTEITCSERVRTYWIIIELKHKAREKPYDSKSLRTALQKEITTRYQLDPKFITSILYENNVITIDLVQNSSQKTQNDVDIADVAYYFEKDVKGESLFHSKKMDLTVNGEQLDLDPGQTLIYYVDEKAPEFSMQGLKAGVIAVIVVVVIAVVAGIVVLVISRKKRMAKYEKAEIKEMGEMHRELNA
Briefly: capture of HCT116 and SAS cells on antibody surface coating, colorimetric read-out at OD 490 nm. How it is done:
The binding specificity of biotinylated OC9801 antibody, biotinylated EpAb4-1 antibody and biotinylated EpCam antibody (commercially available from R&D system, USA) were examined using the HCT116 (colorectal) CTCs and SAS (tongue) CTCs.
The CTC binding specificy of the antibodies was determined by colorimetric method, by measuring the absorption optical density at 490 nm.

B1: biotinylated EpAb4-1 antibody (antibody, V domains shown)
VH: QIQLVQSGPELKKPGETVKISCKASGYTFTNYGMNWVKQAPGKGLKWMGWINTYTGEPTYGDDFKGRFAFSLETSASTAYLQINNLKNEDTATYFCARFGRSVDFWGQGTSVTVSS
VL: DIVMTQAAFSNPVTLGTSASISCRSSKSLLHSNGITYLYWYLQKPGQSPQLLIYHMSNLASGVPDRFSSSGSGTDFTLRISRVEAEDVGIYYCAQNLENPRTFGGGTKLEIK
modifications: biotinylated with Sulfo NHS-LC-Biotin; ratio of biotin and antibody 1.5 to 1; sites not stated
notes: Immobilised through streptavidin on the surface coating in the assay; also called bEpAb4-1; biotinylated anti-EpCam antibody
B1: the binding result is on record as “binds”.
